Experimental data taken from the RNAGym collection of RNA variant scans (doi:10.7554/elife.80360).

B1: CPEB3 Ribozyme (parent)
chain: GGGGGCCACAGCAGAAGCGUUCACGUCGCGGCCCCUGUCAGAUUCUGGUGAAUCUGCGAAUUCUGCUGU

Variants of: B1
Assay: self-cleavage, relative activity (ratio to wild type); higher = more cleavage; co-transcriptional

Row | Variant | self-cleavage
1 | GGGGGCCACAGCAGAAGCGUUCACGUCGCGGCCCCUGUCAGAUUCGGGUGAAUAUGCGAAUUCUGCUGU | 0.845
2 | GGGGGCCACAGCAGAAGCGUUCACGUCGCGGCCCCUGUCAGAUUCGGGUGAAUUUGCGAAUUCUGCUGU | 0.992
3 | GGGGGCCACAGCAGAAGCGUUCACGUCGCGGCCCCUGUCAGAUUCUCGUGAAUCUACGAAUUCUGCUGU | 1
4 | GGGGGCCACAGCAGAAGCGUUCACGUCGCGGCCCCUGUCAGAUUCUCGUGAAUCUGCGAACUCUGCUGU | 0.87
5 | GGGGGCCACAGCAGAAGCGUUCACGUCGCGGCCCCUGUCAGAUUCGGGUGAAUCUACGAAUUCUGCUGU | 0.941
6 | GGGGGCCACAGCAGAAGCGUUCACGUCGCGGCCCCUGUCAGAUUCCGGUGAAUCUGCGAACUCUGCUGU | 0.788
7 | GGGGGCCACAGCAGAAGCGUUCACGUCGCGGCCCCUGUCAGAUUCCGGUGAAUCUGCGAAGUCUGCUGU | 0.856
8 | GGGGGCCACAGCAGAAGCGUUCACGUCGCGGCCCCUGUCAGAUUCUCGUGAAUCUGCGAAUUCUGUUGU | 1
9 | GGGGGCCACAGCAGAAGCGUUCACGUCGCGGCCCCUGUCAGAUUCGGGUGAAUCUGCGAAUUCUACUGU | 0.928
10 | GGGGGCCACAGCAGAAGCGUUCACGUCGCGGCCCCUGUCAGAUUCGGGUGAAUCUGCGAAUUCUUCUGU | 0.913
11 | GGGGGCCACAGCAGAAGCGUUCACGUCGCGGCCCCUGUCAGAUUCUAGUGAAUUUGCGAAUUCUGCUGU | 0.972
12 | GGGGGCCACAGCAGAAGCGUUCACGUCGCGGCCCCUGUCAGAUUCUAUUGAAUCUGCGAAUUCUGCUGU | 1.03
13 | GGGGGCCACAGCAGAAGCGUUCACGUCGCGGCCCCUGUCAGAUUCCGGGGAAUCUGCGAAUUCUGCUGU | 1.01
14 | GGGGGCCACAGCAGAAGCGUUCACGUCGCGGCCCCUGUCAGAUUCUAGUGCAUCUGCGAAUUCUGCUGU | 0.983
15 | GGGGGCCACAGCAGAAGCGUUCACGUCGCGGCCCCUGUCAGAUUCUAGUGAAUCUGCGAAUUCUGCUGC | 1.06
16 | GGGGGCCACAGCAGAAGCGUUCACGUCGCGGCCCCUGUCAGAUUCUCGUGAAUCUGCGAAUCCUGCUGU | 0.91
17 | GGGGGCCACAGCAGAAGCGUUCACGUCGCGGCCCCUGUCAGAUUCUAGUGAAUCUGCUAAUUCUGCUGU | 0.995
18 | GGGGGCCACAGCAGAAGCGUUCACGUCGCGGCCCCUGUCAGAUUCGGGUGACUCUGCGAAUUCUGCUGU | 0.942
19 | GGGGGCCACAGCAGAAGCGUUCACGUCGCGGCCCCUGUCAGAUUCGGGUGAGUCUGCGAAUUCUGCUGU | 0.992
20 | GGGGGCCACAGCAGAAGCGUUCACGUCGCGGCCCCUGUCAGAUUCCGGUGAAUCUGCGAAUUCUGCUUU | 1.02

Row | Variant | self-cleavage
21 | GGGGGCCACAGCAGAAGCGUUCACGUCGCGGCCCCUGUCAGAUUCUAGUGAAUCUGCGACUUCUGCUGU | 0.397
22 | GGGGGCCACAGCAGAAGCGUUCACGUCGCGGCCCCUGUCAGAUUCUAGUGAAUCUGCGAGUUCUGCUGU | 0.944
23 | GGGGGCCACAGCAGAAGCGUUCACGUCGCGGCCCCUGUCAGAUUCUCGUGAAUCUGCGAGUUCUGCUGU | 1.01
24 | GGGGGCCACAGCAGAAGCGUUCACGUCGCGGCCCCUGUCAGAUUCUCGUGAAUCUGCGACUUCUGCUGU | 0.366
25 | GGGGGCCACAGCAGAAGCGUUCACGUCGCGGCCCCUGUCAGAUUCGGGUGAAUCUGCGAAUUGUGCUGU | 0.825
26 | GGGGGCCACAGCAGAAGCGUUCACGUCGCGGCCCCUGUCAGAUUCUAGUGAAUCUGGGAAUUCUGCUGU | 0.303
27 | GGGGGCCACAGCAGAAGCGUUCACGUCGCGGCCCCUGUCAGAUUCGGUUGAAUCUGCGAAUUCUGCUGU | 1.01
28 | GGGGGCCACAGCAGAAGCGUUCACGUCGCGGCCCCUGUCAGAUUCGGCUGAAUCUGCGAAUUCUGCUGU | 0.994
29 | GGGGGCCACAGCAGAAGCGUUCACGUCGCGGCCCCUGUCAGAUUCGGAUGAAUCUGCGAAUUCUGCUGU | 1.01
30 | GGGGGCCACAGCAGAAGCGUUCACGUCGCGGCCCCUGUCAGAUUCGGGUCAAUCUGCGAAUUCUGCUGU | 0.941
31 | GGGGGCCACAGCAGAAGCGUUCACGUCGCGGCCCCUGUCAGAUUCCGGUGAAACUGCGAAUUCUGCUGU | 0.933
32 | GGGGGCCACAGCAGAAGCGUUCACGUCGCGGCCCCUGUCAGAUUCCGGUGAACCUGCGAAUUCUGCUGU | 0.878
33 | GGGGGCCACAGCAGAAGCGUUCACGUCGCGGCCCCUGUCAGAUUCUAGUAAAUCUGCGAAUUCUGCUGU | 0.959
34 | GGGGGCCACAGCAGAAGCGUUCACGUCGCGGCCCCUGUCAGAUUCUAGUCAAUCUGCGAAUUCUGCUGU | 1
35 | GGGGGCCACAGCAGAAGCGUUCACGUCGCGGCCCCUGUCAGAUUCUAGAGAAUCUGCGAAUUCUGCUGU | 1.01
36 | GGGGGCCACAGCAGAAGCGUUCACGUCGCGGCCCCUGUCAGAUUCUAGCGAAUCUGCGAAUUCUGCUGU | 0.975
37 | GGGGGCCACAGCAGAAGCGUUCACGUCGCGGCCCCUGUCAGAUUCUAGUGAAUCUGCGAAUUCUGAUGU | 0.916
38 | GGGGGCCACAGCAGAAGCGUUCACGUCGCGGCCCCUGUCAGAUUCGGGUGAAUCUGCGAAUUCUGCUGG | 1.04
39 | GGGGGCCACAGCAGAAGCGUUCACGUCGCGGCCCCUGUCAGAUUCGGGUGAAUCUGCGAAUUCUGCUGA | 1.01
